From patent US20230144608A1, “CLEAVABLE LINKERS” (Xilio Development, Inc., priority 2021, published 2023)

Columns and labels:
MMP-14 = MMP-14 (Homo sapiens, UniProt P50281); assay: Cleavage by recombinant protease MMP-14; type: biochemical; settings: initial rate, recombinant MMP-14
Experimental: (§1) In this example, the peptides library was subjected to cleavage screening by biological matrices, i.e., tumor conditioned media (TCM). The cleavage of the peptides library by plasma was performed for comparison. Each peptide in the library includes a fluorescent mark at one end of its sequence and a quencher on the other end of the sequence. Upon cleavage of the peptide, the quencher is separated from the fluorescent mark, thereby releasing the fluorescent mark. The peptide substrates with the highest ratio of (initial rate of cleavage by tumor conditioned media (TCM) - initial rate of cleavage by plasma) in pmol/min, from cancer patients were identified.
(§2) The peptides with high ratio of initial rate of cleavage by tumor conditioned media (TCM) to initial rate of cleavage by plasma were further screened using recombinant proteases. The peptide substrates that have high initial rates (uM/h) of cleavage by recombinant proteases were identified (Table 4).

[1] = system: H&N tumor conditioned media (TCM) and plasma; assay: Fluorescence-quencher peptide cleavage screening, H&N tumor conditioned media versus plasma; type: biochemical, human; settings: Head and Neck cancer patients; fluorophore/quencher-labelled peptide
Experimental: as §1

[2] = system: RCC tumor conditioned media (TCM) and plasma; assay: Fluorescence-quencher peptide cleavage screening, RCC tumor conditioned media versus plasma; type: biochemical, human; settings: RCC patients; fluorophore/quencher-labelled peptide
Experimental: as §1

MMP-8 = MMP-8 (Homo sapiens, UniProt P22894); assay: Cleavage by recombinant protease MMP-8; type: biochemical; settings: initial rate, recombinant MMP-8
Chain of MMP-8 (P22894 101-467): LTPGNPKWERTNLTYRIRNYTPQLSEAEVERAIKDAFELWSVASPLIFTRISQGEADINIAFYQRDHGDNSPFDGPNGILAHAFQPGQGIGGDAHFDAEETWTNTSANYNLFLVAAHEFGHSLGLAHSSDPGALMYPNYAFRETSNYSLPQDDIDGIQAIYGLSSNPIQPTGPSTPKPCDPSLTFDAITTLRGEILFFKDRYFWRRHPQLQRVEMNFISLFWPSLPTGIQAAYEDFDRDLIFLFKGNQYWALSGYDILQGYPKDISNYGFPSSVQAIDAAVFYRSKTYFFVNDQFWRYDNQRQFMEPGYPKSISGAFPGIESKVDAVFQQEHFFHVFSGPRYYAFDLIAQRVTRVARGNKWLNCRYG
Experimental: as §1, §2

MMP-7 = target: T1, MMP-7 (Homo sapiens, UniProt P09237); assay: Cleavage by recombinant protease MMP-7; type: biochemical; settings: initial rate, recombinant MMP-7
T1 sequence (P09237 95-267): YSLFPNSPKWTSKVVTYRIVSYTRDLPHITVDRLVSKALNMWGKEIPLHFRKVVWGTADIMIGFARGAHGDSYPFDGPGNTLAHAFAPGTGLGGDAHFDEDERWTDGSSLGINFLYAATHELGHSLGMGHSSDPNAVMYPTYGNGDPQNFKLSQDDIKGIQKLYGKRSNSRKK
Experimental: as §1, §2

MMP-10 = MMP-10 (Homo sapiens, UniProt P09238); assay: Cleavage by recombinant protease MMP-10; type: biochemical; settings: initial rate, recombinant MMP-10
Chain of MMP-10 (P09238 99-476): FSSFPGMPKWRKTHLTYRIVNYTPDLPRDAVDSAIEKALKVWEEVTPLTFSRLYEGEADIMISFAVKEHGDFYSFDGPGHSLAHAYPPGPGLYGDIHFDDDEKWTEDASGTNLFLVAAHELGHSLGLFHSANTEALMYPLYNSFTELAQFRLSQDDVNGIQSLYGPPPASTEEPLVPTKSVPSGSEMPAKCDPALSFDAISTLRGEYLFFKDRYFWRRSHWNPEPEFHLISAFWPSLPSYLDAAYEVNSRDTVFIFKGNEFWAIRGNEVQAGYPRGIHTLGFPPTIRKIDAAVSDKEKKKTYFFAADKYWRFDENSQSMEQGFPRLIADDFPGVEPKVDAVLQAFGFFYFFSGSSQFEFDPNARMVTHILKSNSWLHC
Experimental: as §1, §2

MMP-2 = target: T2, MMP-2 (Homo sapiens, UniProt P08253); assay: Cleavage by recombinant protease MMP-2; type: biochemical; settings: initial rate, recombinant MMP-2
T2 sequence (P08253 110-660): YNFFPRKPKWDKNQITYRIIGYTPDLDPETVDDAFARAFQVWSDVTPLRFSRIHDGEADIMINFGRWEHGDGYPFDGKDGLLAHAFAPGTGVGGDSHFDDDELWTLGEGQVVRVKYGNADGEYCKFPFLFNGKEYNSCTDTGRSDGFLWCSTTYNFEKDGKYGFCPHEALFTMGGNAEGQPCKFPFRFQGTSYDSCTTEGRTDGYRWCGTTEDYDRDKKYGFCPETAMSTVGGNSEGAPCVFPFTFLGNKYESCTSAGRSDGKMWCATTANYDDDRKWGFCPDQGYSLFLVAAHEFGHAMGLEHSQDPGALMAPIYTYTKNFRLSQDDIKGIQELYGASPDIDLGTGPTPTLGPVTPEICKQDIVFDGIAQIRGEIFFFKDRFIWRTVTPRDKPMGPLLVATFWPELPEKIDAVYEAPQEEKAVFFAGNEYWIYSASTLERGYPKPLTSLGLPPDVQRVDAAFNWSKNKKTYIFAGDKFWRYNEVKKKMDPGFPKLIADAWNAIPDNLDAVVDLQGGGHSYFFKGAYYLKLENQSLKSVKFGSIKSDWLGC
Experimental: as §1, §2

MMP-9 = MMP-9 (Homo sapiens, UniProt P14780); assay: Cleavage by recombinant protease MMP-9; type: biochemical; settings: initial rate, recombinant MMP-9
Chain of MMP-9 (P14780 94-707): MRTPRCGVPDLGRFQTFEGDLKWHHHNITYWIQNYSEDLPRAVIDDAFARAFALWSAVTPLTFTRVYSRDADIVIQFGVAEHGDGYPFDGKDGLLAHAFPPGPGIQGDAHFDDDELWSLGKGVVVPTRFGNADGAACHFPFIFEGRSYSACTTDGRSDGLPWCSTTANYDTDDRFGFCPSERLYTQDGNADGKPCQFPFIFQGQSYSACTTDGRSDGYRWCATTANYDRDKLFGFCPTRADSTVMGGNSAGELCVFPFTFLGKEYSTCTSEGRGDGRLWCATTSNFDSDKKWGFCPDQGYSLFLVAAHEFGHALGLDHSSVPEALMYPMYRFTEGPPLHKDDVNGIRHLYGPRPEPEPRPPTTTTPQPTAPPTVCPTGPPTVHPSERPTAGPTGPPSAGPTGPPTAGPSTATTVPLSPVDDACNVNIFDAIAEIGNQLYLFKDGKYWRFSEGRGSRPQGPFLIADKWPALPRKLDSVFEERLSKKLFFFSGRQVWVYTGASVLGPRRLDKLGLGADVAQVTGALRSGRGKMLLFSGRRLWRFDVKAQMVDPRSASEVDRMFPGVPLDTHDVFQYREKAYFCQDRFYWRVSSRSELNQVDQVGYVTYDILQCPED
Experimental: as §1, §2

CatB = CatB (Homo sapiens, UniProt P07858); assay: Cleavage by recombinant protease Cathepsin B; type: biochemical; settings: initial rate
Experimental: as §1, §2

MMP-1 = target: T3, MMP-1 (Homo sapiens, UniProt P03956); assay: Cleavage by recombinant protease MMP-1; type: biochemical; settings: initial rate, recombinant MMP-1
T3 sequence (P03956 100-469): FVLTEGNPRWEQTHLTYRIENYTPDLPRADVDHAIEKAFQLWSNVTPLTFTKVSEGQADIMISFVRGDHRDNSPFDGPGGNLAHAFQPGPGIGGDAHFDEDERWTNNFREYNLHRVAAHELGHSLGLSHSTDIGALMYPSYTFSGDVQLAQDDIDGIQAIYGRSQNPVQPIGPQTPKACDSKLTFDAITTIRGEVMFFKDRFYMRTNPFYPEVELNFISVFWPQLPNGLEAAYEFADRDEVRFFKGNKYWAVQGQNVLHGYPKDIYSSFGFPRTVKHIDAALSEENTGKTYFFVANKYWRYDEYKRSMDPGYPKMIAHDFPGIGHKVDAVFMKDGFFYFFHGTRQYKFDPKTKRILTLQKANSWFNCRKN
Experimental: as §1, §2

[3] = system: 'NAT' (Normal Adjacent Tissue) culture supernatant; assay: Cleavage of synthetic peptides in NAT culture supernatant (MSP-MS); type: biochemical; settings: for Earliest cleaved time point -NAT: NAT culture supernatant, MSP-MS; for NAT + CFZ: cleavage in NAT culture supernatant, carfilzomib (CFZ) in the incubation media, given as fraction x/5
Experimental: (§3) Sequences comprising cleavage peptides […] (SEQ ID NO: 1) or […] (SEQ ID NO:2) (shown in bold below) were incubated in either ‘NAT’ (Normal Adjacent Tissue) or ‘RCC’ (Renal Cell Carcinoma) culture supernatants, to test the specificity of each peptide’s cleavage. Carfilzomib (CFZ) is also included in the incubation media as an inhibitor of proteosome, to inhibit false positive cleavage.
(§4) To this end, peptide sequencing by mass spectrometry was used to identify cleaved fragments produced for the synthetic peptides shown in the table below, using a published technique called multiplexed substrate profiling by mass spectrometry (MSP-MS) (O’Donoghue A.J. et al. Nat Methods. 2012 Nov;9(11):1095-100.) Cleavages were monitored in these reactions over time, and the peptides found to be cleaved in the earliest time points were deemed to be most sensitive to proteolytic activity in the conditioned media samples.

[4] = system: 'RCC' (Renal Cell Carcinoma) culture supernatant; assay: Cleavage of synthetic peptides in RCC culture supernatant (MSP-MS); type: biochemical; settings: for Earliest cleaved time point -RCC: RCC culture supernatant, MSP-MS; for RCC + CFZ: cleavage in RCC culture supernatant, carfilzomib (CFZ) in the incubation media, given as fraction x/5
Experimental: as §3, §4

[5] = patients who received a 5-minute intravenous (IV) infusion; product label; cited from earlier work

Substance	Rates of cleavage by recombinant proteases, MMP-14 (MMP-14) [µM/h]	Rates of cleavage by recombinant proteases, MMP-8 (MMP-8) [µM/h]	Rates of cleavage by recombinant proteases, MMP-7 (MMP-7) [µM/h]	Rates of cleavage by recombinant proteases, MMP-10 (MMP-10) [µM/h]	Rates of cleavage by recombinant proteases, MMP-2 (MMP-2) [µM/h]	Rates of cleavage by recombinant proteases, MMP-9 (MMP-9) [µM/h]	Rates of cleavage by recombinant proteases, CatB (CatB) [µM/h]	Rates of cleavage by recombinant proteases, MMP-1 (MMP-1) [µM/h]	Initial cleavage rate difference, tumor conditioned media minus plasma [1] [pmol/min]	Initial cleavage rate in tumor conditioned media minus initial cleavage rate in plasma [2] [pmol/min]	Earliest cleaved time point -NAT [3] [min]	NAT + CFZ [3]	Earliest cleaved time point -RCC [4] [min]	RCC + CFZ [4]	half-life [5] [min]
APAGLIVPYN [proteolytically cleavable peptide (CP), protease substrate]	2.1	0.5	2.4	1.6	29.6	1.8	1.0	0.0	0.1	0.2					
RQGGM*PKDLYHA*SAKQ (RQGGMPKDLYHASAKQ) [Alu-XT-091, * indicates cleavage site]											5	1/5	15	5/5	
aldesleukin															85
RVGPVSL*R*SGSGKI (RVGPVSLRSGSGKI) [Alu-XT-019, * indicates cleavage site]											5	1/5	15	5/5	

The next lines start with results.

Rates of cleavage by recombinant proteases, MMP-14 (MMP-14) [µM/h]	Rates of cleavage by recombinant proteases, MMP-8 (MMP-8) [µM/h]	Rates of cleavage by recombinant proteases, MMP-7 (MMP-7) [µM/h]	Rates of cleavage by recombinant proteases, MMP-10 (MMP-10) [µM/h]	Rates of cleavage by recombinant proteases, MMP-2 (MMP-2) [µM/h]	Rates of cleavage by recombinant proteases, MMP-9 (MMP-9) [µM/h]	Rates of cleavage by recombinant proteases, CatB (CatB) [µM/h]	Rates of cleavage by recombinant proteases, MMP-1 (MMP-1) [µM/h]	Substance	Initial cleavage rate difference, tumor conditioned media minus plasma [1] [pmol/min]	Initial cleavage rate in tumor conditioned media minus initial cleavage rate in plasma [2] [pmol/min]	Earliest cleaved time point -NAT [3] [min]	NAT + CFZ [3]	Earliest cleaved time point -RCC [4] [min]	RCC + CFZ [4]	half-life [5] [min]
0.7	7.2	2.5	1.8	31.2	8.8	0.0	2.7	PANLVAPDP [proteolytically cleavable peptide (CP), protease substrate]	0.4	0.1					
0.0	0.1	0.2	0.0	1.9	6.5	0.0	0.0	PVSLRSGS [proteolytically cleavable peptide (CP), protease substrate]	0.0	0.2					
0.1	0.1	1.8	0.0	11.8	0.3	0.3	0.0	TQKPLGLS [proteolytically cleavable peptide (CP), protease substrate]	0.2	0.2					
0.0	0.0	0.0	0.0	0.0	0.0	1.9	0.0	IVGRPRHQGV [proteolytically cleavable peptide (CP), protease substrate]	0.1	0.6					
0.0	0.2	0.2	0.0	1.1	0.2	0.3	0.1	RPLALWRS [proteolytically cleavable peptide (CP), protease substrate]	0.0	0.5					
0.0	0.0	0.0	0.0	0.0	0.0	1.9	0.0	RSKYLATA [proteolytically cleavable peptide (CP), protease substrate]	0.0	0.3					
